Results as given in PMC2673096.

Molecular target: FLAG-HA-HA (F2H)-tagged tbRAP1 at its endogenous locus (Trypanosoma brucei (endogenous locus in T. brucei cells))
Test: co-IP

endogenous tbTRF (natural protein) gave a percent co-immunoprecipitated of 10%.
